# In publication PMC4439027, “Selection of scFv Antibody Fragments Binding to Human Blood versus Lymphatic Endothelial Surface Antigens by Direct Cell Phage Display” (PLoS ONE, 2015):
# Legend:
# [1] = biological target: T1, CD146 / MCAM on BECs and melanoma cells (Homo sapiens, UniProt P43121-1); test: immunostaining of cells or tissue; immunofluorescence on fixed cells (BECs, LECs, HDMECs, melanoma cells) and human skin cryosections, co-staining with anti-podoplanin or commercial anti-CD146 antibody; conditions: one partner purified
# T1 construct: also called native CD146; CD146 expressed by BECs, melanoma cells; source: endogenous, on BECs and melanoma cell lines A375, CRL1676, HTB71 (fixed monolayers)
# T1 sequence (P43121 24-646): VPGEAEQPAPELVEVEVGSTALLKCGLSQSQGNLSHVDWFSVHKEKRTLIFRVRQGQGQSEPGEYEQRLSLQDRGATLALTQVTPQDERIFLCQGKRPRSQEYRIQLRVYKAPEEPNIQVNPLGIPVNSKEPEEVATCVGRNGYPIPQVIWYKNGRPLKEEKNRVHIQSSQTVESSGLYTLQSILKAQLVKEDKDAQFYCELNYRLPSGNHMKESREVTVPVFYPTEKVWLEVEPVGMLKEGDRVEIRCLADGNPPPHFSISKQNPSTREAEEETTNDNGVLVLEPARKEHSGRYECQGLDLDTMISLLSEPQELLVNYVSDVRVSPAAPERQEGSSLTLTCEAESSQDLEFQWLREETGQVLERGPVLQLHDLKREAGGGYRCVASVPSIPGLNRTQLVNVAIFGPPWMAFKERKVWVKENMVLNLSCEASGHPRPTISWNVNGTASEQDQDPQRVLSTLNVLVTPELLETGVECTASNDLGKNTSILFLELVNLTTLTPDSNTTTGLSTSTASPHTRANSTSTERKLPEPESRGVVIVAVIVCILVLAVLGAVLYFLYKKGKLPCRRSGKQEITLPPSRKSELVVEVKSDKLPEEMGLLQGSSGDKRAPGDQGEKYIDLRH
# [2] = biological target: T2, Recombinant human CD146 comprising the extracellular Met1-Gly559 portion of the protein precursor, C-terminal … (Homo sapiens, UniProt P43121-1); test: ELISA; plates coated with recombinant CD146 or BSA at 100, 10 and 1 ng/ml overnight at 4°C, blocked with TBST/ 5% BSA; scFv or scFv-Fc added serially diluted, RT overnight; HRP-conjugated detection antibodies, absorbance at 450 nm; conditions: both partners purified
# T2 construct: signal peptide in the construct; human CD146 / MCAM / MUC18, extracellular Met1-Gly559 portion of the protein precursor (NP_006491.2); also called recombinant CD146; extracellular domain of recombinant human CD146; source: bought: Sino Biological Inc., Nr; 10115-H08H
# T2 sequence (P43121 24-559): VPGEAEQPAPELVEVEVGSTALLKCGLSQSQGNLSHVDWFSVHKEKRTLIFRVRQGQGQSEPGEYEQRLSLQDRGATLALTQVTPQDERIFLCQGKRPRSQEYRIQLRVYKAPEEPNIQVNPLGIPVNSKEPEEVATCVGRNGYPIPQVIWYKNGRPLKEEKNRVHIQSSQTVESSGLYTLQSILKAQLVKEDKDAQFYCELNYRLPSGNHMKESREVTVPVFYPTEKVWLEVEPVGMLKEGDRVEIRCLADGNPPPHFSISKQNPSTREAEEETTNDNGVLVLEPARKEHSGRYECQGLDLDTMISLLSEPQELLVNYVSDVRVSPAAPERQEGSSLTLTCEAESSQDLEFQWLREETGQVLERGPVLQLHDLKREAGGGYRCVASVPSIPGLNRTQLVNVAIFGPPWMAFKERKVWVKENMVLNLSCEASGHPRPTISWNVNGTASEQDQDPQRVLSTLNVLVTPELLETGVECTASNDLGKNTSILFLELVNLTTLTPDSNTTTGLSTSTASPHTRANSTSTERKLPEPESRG
# [3] = biological target: T1, CD146 / MCAM on BECs and melanoma cells; test: ELISA; whole cell ELISA on confluent monolayers in 96-well plates fixed with PBS/ 1% PFA; purified scFv or scFv-Fc added; absorbance at 450 nm; conditions: one partner purified
# [4] = biological target: T3, CD146 of BEC lysate treated with PNGase F (N-linked oligosaccharides removed) (Homo sapiens, UniProt P43121-1, oligosaccharides removed from N-linked glycoprotein with PNGase F); test: co-IP; BEC lysate incubated with scFv or scFv-Fc (or Fc only) at 4°C overnight, captured on Protein A/G resin; Western blot in reducing conditions with commercial anti-CD146 antibody; lysates with or without PNGase F, before or after addition of the scFv; conditions: one partner purified
# T3 construct: human CD146 / MCAM (NP_006491), endogenous in primary human blood endothelial cells, after PNGase F; band shifted down to 95 kDa; PNGase F was added before or after the scFv; also called deglycosylated CD146; source: endogenous, BEC lysate, treated with PNGase F (3 hrs at 37°C)
# T3 sequence (P43121 24-646): as the sequence (P43121 24-646) above
binder,measurement,setting,value
"scFv-Fc B6-11 fusion antibody (Fc fusion, human, Runs as a dimer under non-reducing SDS-PAGE; the Fc is that of the vector pFUSE-mIgG2B-Fc2 (Invivogen); also called scFv-mFc fusion antibody; source: HEK293, transfected (pFUSE-mIgG2B-Fc2), purified from culture supernatants (proteinAG UltraLink Resin); not shown: Fc (murine IgG2B), C-terminal, kept) VH: EVQLVESGGGLVQGGSLRLSCAASGFTFSSYAMSWVRQAPGKGLEWVSAISGSGGSTYYADSVKGRFTISRDNSKNTLYLQMNSLRAEDTAVYYCAKSSNVRTFDYWGQGTLVTVSR VL: SSELTQDPAVSVALGQTVRITCQGDSLRSYYASWYQQKPGQAPVLVIYGKNNRPSGIPDRFSGSSSGNTASLTITGAQAEDEADYYCNSSTPLSAPVVFGGGTKLTVL",binding result,[1],binds
same,binding result,[2],binds
"scFv B6-11 (scFv, V domains shown, VH of scFv B6-11 (ETH-2 library, human germline heavy chain segment with randomised CDR3); linker region; VL of scFv B6-11 (ETH-2 library, human germline light chain segment with randomised CDR3); Selected from the semi-synthetic human ETH-2 phage library on BECs (round 6); His-tag and Flag-tag come from phagemid pDN332; also called scFv B6-11 antibody; anti-CD146 scFv B6-11; source: E. coli TG1, …) VH: EVQLVESGGGLVQGGSLRLSCAASGFTFSSYAMSWVRQAPGKGLEWVSAISGSGGSTYYADSVKGRFTISRDNSKNTLYLQMNSLRAEDTAVYYCAKSSNVRTFDYWGQGTLVTVSR VL: SSELTQDPAVSVALGQTVRITCQGDSLRSYYASWYQQKPGQAPVLVIYGKNNRPSGIPDRFSGSSSGNTASLTITGAQAEDEADYYCNSSTPLSAPVVFGGGTKLTVL",binding result,[3],binds
same,binding result,[2],binds
same,binding result,[4],binds
